Biological target: human Siglec-8 on lung mast cells from COPD patients (human, UniProt Q9NYZ4 17-499)
Test: cell-based or functional assay

Sequence of human Siglec-8 on lung mast cells from COPD patients (Q9NYZ4 17-499): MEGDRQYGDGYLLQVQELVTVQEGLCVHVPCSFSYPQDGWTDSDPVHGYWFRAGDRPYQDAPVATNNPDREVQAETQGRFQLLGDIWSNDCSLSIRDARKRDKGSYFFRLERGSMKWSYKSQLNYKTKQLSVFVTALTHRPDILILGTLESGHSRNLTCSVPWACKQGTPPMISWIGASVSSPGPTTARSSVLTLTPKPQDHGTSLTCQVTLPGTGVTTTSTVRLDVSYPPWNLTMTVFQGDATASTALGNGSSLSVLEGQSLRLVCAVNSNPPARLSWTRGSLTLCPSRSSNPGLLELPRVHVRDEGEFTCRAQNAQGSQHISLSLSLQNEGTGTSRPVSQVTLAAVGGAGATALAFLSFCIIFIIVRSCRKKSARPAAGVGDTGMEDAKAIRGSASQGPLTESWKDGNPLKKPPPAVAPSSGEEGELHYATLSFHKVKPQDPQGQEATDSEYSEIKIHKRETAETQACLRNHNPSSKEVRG

decrease in VEGF secreted into the cell supernatant by COPD lung tissue homogenates incubated overnight with antibody, relative to isotype control antibody: ~50%
B1: anti-Siglec-8 IgG4 antibody (HEKA) (antibody, V domains shown)
VH: EVQLVESGGGLVQPGGSLRLSCAASGFSLTIYGAHWVRQAPGKGLEWVGVIWAGGSTNYNSALMSRFTISKDNSKNTVYLQMNSLRAEDTAVYYCARDGSSPYYYSMEYWGQGTTVTVSS
VL: EIVLTQSPATLSLSPGERATLSCSATSSVSYMHWFQQKPGQAPRLLIYSTSNLASGIPARFSGSGSGTDFTLTISSLEPEDFAVYYCQQRSSYPFTFGPGTKLDIKR

— patent publication US20190338027A1 (ALLAKOS, published 2019)
